# B1: THAP1; numbered along this chain (parent)
# chain: MVQSCSAYGCKNRYDKDKPVSFHKFPLTRPSLCKEWEAAVRRKNFKPTKYSSICSEHFTPDCFKRECNNKLLKENAVPTIFLCTEPHDKKEDLLEPQEQLPPPPLPPPVSQVDAAIGLLMPPLQTPVNLSVFCDHNYTVEDTMHQRKRIHQLEQQVEKLRKKLKTAQQRCRRQERQLEKLKEVVHFQKEKDDVSERGYVILPNDYFEIVEVPA
# Variants of: B1
# Assay: THAP1 transcriptional activity (GFP+/GFP- enrichment relative to wild-type constructs) (ratio to WT); higher = more THAP1 activity (PSMB5 reporter activation)
# Conditions: with PSMB5 promoter-GFP reporter
# Outline: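 A lentiviral site-saturation library covering residues 2–213 of human THAP1, with each position changed to all 20 amino acids, was transduced in duplicate at MOI ~0.3 into THAP1-knockout HEK-293T cells with mClover3 knocked in at endogenous PSMB5. Five days later, BFP+ cells were sorted into GFP-dim and GFP-bright bins and variants were counted by Illumina sequencing of genomic DNA amplicons. Activity is the bright/dim read fold change averaged over replicates and divided by the mean of wild-type synonymous constructs.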
row,Variant,THAP1 transcriptional activity
1,P86W,0.533
2,P86K,0.623
3,P86S,0.97
4,P86M,2.06
5,P47T,0.151
6,P47W,0.0629
7,P202H,1.12
8,P202R,0.824
9,P202G,0.98
10,Y50M,0.091
11,Y50C,0.275
12,Y50H,0.759
13,D92G,0.763
14,D92C,0.866
15,P121K,0.594
16,P121N,0.457
17,H144P,0.334
18,H144A,1.5
19,A213R,0.843
20,M120T,1.85
21,M120I,1.14
22,T165I,0.755
23,T165C,1.22
24,E178N,0.394

row,Variant,THAP1 transcriptional activity
1,E178H,0.957
2,C67N,0.17
3,L100A,1.25
4,L100P,1.9
5,L163T,0.195
6,N75E,0.468
7,N75M,0.658
8,E140K,4.18
9,R29W,0.129
10,R29E,0.127
11,R29T,0.12
12,F63W,0.473
13,F63V,0.082
14,K188A,1.14
15,K188P,0.419
16,K188Y,0.683
17,K188I,0.858
18,P212G,0.939
19,K18F,0.11
20,I53W,0.052
21,I53C,0.164
22,Q176S,0.434
23,S194L,0.808
24,Q145Y,0.618

row,Variant,THAP1 transcriptional activity
1,E95V,0.815
2,F25K,0.0509
3,F25E,0.148
4,C33D,0.11
5,L93S,0.575
6,I116L,0.739
7,I116G,1.82
8,I116Q,0.902
9,V131H,0.401
10,V131I,0.81
11,V131R,0.367
12,V131W,0.261
13,V131F,0.399
14,K24C,0.146
15,K24F,0.1
16,D141M,0.395
17,M143W,0.719
18,M143A,0.634
19,T125K,1.4
20,T125F,0.212
21,T125V,0.325
22,T125W,0.351
23,A115V,0.454
24,N136P,0.263

row,Variant,THAP1 transcriptional activity
1,V77R,0.539
2,V77D,0.295
3,V139F,0.996
4,V139C,0.724
5,V139A,0.763
6,V139L,1.18
7,V139T,0.34
8,V139K,1.41
9,Q167G,0.21
10,S4P,0.142
11,E195Y,0.588
12,P30C,0.123
13,P30D,0.254
14,C62Y,0.141
15,C62K,0.21
16,L152P,0.177
17,L129G,0.706
18,L129Q,0.659
19,A166R,0.328
20,A166H,0.35
21,L72E,0.322
22,L72D,0.169
23,Q3F,0.143
24,Q3K,0.266

row,Variant,THAP1 transcriptional activity
1,Q3I,0.678
2,E74C,0.522
3,E74Q,1.17
4,E74F,1.09
5,E74R,0.858
6,E74W,0.598
7,L123G,0.957
8,P19Y,0.197
9,P126R,0.51
10,P126E,0.744
11,P126W,0.207
12,D191R,1.31
13,D191S,1.21
14,D191Y,0.661
15,K90D,0.818
16,Q124V,0.643
17,Q124W,0.257
18,Q124R,0.787
19,R65G,0.424
20,V40S,0.14
21,V40K,0.127
22,R41A,1.37
23,S51A,0.32
24,S51E,0.185

row,Variant,THAP1 transcriptional activity
1,D134C,0.156
2,D192I,0.817
3,D192F,0.716
4,C83S,1.05
5,C83F,1.21
6,C83R,1.54
7,C83E,0.913
8,E98L,0.875
9,N44A,0.194
10,N44E,0.348
11,K11Y,0.201
12,K11H,0.343
13,K11T,0.513
14,D113M,0.24
15,P104D,6.01
16,V183M,0.882
17,V183A,1.11
18,V183Y,0.941
19,V183H,0.519
20,V183L,0.753
21,K161L,0.441
22,K161I,0.452
23,K161F,0.232
24,L71S,0.483

row,Variant,THAP1 transcriptional activity
1,L71H,0.403
2,L71I,1.07
3,A7D,0.0976
4,A7M,0.279
5,N69G,0.122
6,K64V,0.215
7,K64W,0.0652
8,K64E,0.188
9,K64C,0.0975
10,K164F,0.167
11,A114F,0.602
12,A114Y,0.291
13,A114M,0.387
14,C5Q,0.133
15,C5L,0.147
16,C5T,0.162
17,C5F,0.125
18,P107N,0.608
19,P107C,0.851
20,P107K,1.6
21,P107I,0.533
22,R175A,0.506
23,R175I,0.699
24,A39Y,0.413

row,Variant,THAP1 transcriptional activity
1,A39R,0.673
2,R148T,0.312
3,R148Q,0.425
4,R148V,0.412
5,K70H,0.709
6,L27Y,0.304
7,G9R,0.256
8,G9M,0.381
9,G9W,0.167
10,G9T,0.132
11,G9V,0.0945
12,K162Q,0.612
13,L32D,0.155
14,R42D,0.0738
15,N128H,0.446
16,N128R,0.823
17,E56H,0.253
18,D204A,1.26
19,D204V,1.39
20,D204Q,0.749
21,F58A,0.0948
22,V193M,0.559
23,V193G,1.08
24,V193N,1.24

row,Variant,THAP1 transcriptional activity
1,L180K,0.367
2,L180C,0.43
3,L180P,0.166
4,R172V,0.288
5,R172Q,0.364
6,Y14C,0.157
7,K43L,0.454
8,T59N,0.386
9,T59K,0.423
10,T59L,0.372
11,Y8R,0.374
12,S6I,0.183
13,S6K,0.122
14,C170G,0.353
15,C170R,0.609
16,L94S,1.71
17,Q187S,1.45
18,Q187A,1.21
19,L119K,1.25
20,L119W,0.533
21,T48S,0.729
22,T48E,0.0991
23,A76Q,0.234
24,P106S,2.1

row,Variant,THAP1 transcriptional activity
1,N68W,0.089
2,N68V,0.125
3,E91S,1.71
4,S21C,0.0926
5,D15M,0.419
6,D15C,0.853
7,D15K,0.704
8,D15P,0.107
9,E157P,0.228
10,K46F,0.339
11,P26A,0.13
12,P26Y,0.208
13,P26T,0.0945
14,D88Q,1.12
15,D88E,1.04
16,G117S,0.877
17,K147S,0.621
18,Q155W,0.376
19,R160A,0.391
20,R160Y,0.263
21,R160H,0.433
22,E37F,0.177
23,E37Q,0.337
24,E37Y,0.252

row,Variant,THAP1 transcriptional activity
1,W36P,0.167
2,W36E,0.13
3,V199N,0.42
4,K49M,0.232
5,L82Y,1.46
6,L82Q,1.59
7,L82G,1.31
8,V156T,0.468
9,V156M,0.475
10,E66A,1.36
11,E66N,2.46
12,P101Y,1.08
13,P101L,1.19
14,L118Q,1.04
15,L118V,0.976
16,L118F,1.09
17,K190M,0.557
18,K190F,0.86
19,K190S,0.846
20,K73W,0.212
21,K73A,0.31
22,K73C,0.395
23,Y137P,0.117
24,V127F,0.642

row,Variant,THAP1 transcriptional activity
1,E207D,0.615
2,E207M,0.796
3,H57A,0.116
4,H57L,0.107
5,H57C,0.196
6,H57W,0.0852
7,K16Y,0.158
8,Y198F,0.947
9,Y198E,1.15
10,Y198G,0.536
11,N203H,1.32
12,F206C,1.5
13,Q99N,2.66
14,Q99L,1.11
15,Q99C,0.535
16,F186L,1.31
17,F186I,1.08
18,T28F,0.194
19,T28K,1.42
20,T28S,3.39
21,H135G,0.152
22,H135I,0.146
23,H135E,0.396
24,H135S,0.182

row,Variant,THAP1 transcriptional activity
1,C133H,2.5
2,H150D,0.609
3,H150Y,0.767
4,R171E,0.218
5,E210R,0.747
6,E210F,0.823
7,E210M,0.913
8,E153C,0.315
9,N12V,0.129
10,N12W,0.121
11,N12D,0.0987
12,N12H,0.108
13,N12G,0.0923
14,Q151A,0.791
15,P108Y,0.559
16,P108H,1.01
17,L159N,0.294
18,L159E,0.147
19,S31I,0.728
20,S31V,0.895
21,S31Q,0.998
22,V209M,0.587
23,V209C,0.679
24,V209Y,0.755

row,Variant,THAP1 transcriptional activity
1,V209I,0.823
2,C10E,0.0982
3,D17Q,1.12
4,D17K,1.31
5,D17G,0.387
6,I208F,0.98
7,I208K,0.59
8,G197A,1.19
9,K89N,1.86
10,K89D,1.33
11,I200E,0.762
12,H87C,1.84
13,H87R,1.11
14,Y205A,1.86
15,E189T,1.08
16,S55V,0.101
17,L177K,0.328
18,L177C,0.369
19,V112A,0.615
20,V112F,0.388
21,V112Q,1.03
22,C54P,0.234
